Columns and labels:
amyloid beta 1-42 = target: T1, amyloid beta 1-42 (human, UniProt P05067 672-713); test: SPR; cypD captured on an amine-coupled anti-cypD antibody; oligomeric Aβ (Preparation A) injected at 1 μM for 5 min; running buffer 10 mM HEPES pH 7.4, 5 mM Na+, BSA 200 μg/mL, K+ 0-500 mM, Mg2+ 0-50 mM; 25 °C, 20 µL/min; reference-compensated response 5 min after return to buffer; details: both partners purified
T1 construct: amyloid beta fragment 1-42 (42 amino acids), human, synthetic; numbers count on: the Aβ peptide; Used in an oligomeric form (Preparation A) and a monomeric form (Preparation B); The two forms are told apart by the assay; also called Aβ_(1–42); Aβ; source: synthetic peptide; bought: AnaSpec
T1 sequence (P05067 672-713): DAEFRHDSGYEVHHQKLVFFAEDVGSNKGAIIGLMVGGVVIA

amyloid beta 1-40 = target: T2, amyloid beta 1-40 (human, UniProt P05067 672-711); test: SPR; cypD captured on an amine-coupled anti-cypD antibody; monomeric Aβ (Preparation C for Aβ1-40, Preparation B for Aβ1-42) injected at 1 μM for 5 min; running buffer 10 mM HEPES pH 7.4, 5 mM Na+, BSA 200 μg/mL, K+ 0-500 mM, Mg2+ 0-50 mM; 25 °C, 20 µL/min; reference-compensated response 5 min after return to buffer; details: both partners purified
T2 construct: amyloid beta fragment 1-40 (40 amino acids), human, synthetic; numbers count on: the Aβ peptide; Used in a monomeric form (Preparation C) and an oligomeric form (Preparation A); The two forms are told apart by the assay; also called Aβ_(1–40); Aβ; source: synthetic peptide; bought: AnaSpec
T2 sequence (P05067 672-711): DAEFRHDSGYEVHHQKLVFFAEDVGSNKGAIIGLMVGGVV

B1: cyclophilin D (enzyme)
chain: not shown
notes: cyclophilin D (cypD), human, recombinant, bought from Fitzgerald; also called cypD; source: bought: Fitzgerald (human, recombinant)
B1: binds (amyloid beta 1-42); binds (amyloid beta 1-40).

From article PMC7766583 (International Journal of Molecular Sciences, 2020)
